This experiment has as its target recombinant human FcγRIIa/CD32 R131 (Lumit binding immunoassay) (human) (UniProt P12318). Description: Lumit FcγRIIa (CD32) (R131) Binding Immunoassay (Promega), competition with Tracer-LgBiT for FcγR-SmBiT, luminescence, n=1; right panel.

recombinant human FcγRIIa/CD32 R131 (Lumit binding immunoassay) (human), sequence (P12318 34-217 H167R limits assumed): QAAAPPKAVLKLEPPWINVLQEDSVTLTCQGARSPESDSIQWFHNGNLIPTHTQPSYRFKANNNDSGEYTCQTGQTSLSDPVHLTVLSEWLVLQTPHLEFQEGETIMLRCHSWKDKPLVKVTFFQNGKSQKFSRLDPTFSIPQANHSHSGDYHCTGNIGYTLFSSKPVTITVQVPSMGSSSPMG

Take “IgG1 positive control (standard of the Lumit FcγR Binding Immunoassays) (antibody)”: the IC50 (read off the curve) was found to be 3 mg/L.

The values are drawn from patent publication US20240190958A1, “NOVEL ANTIBODY DRUG CONJUGATES WITH NOVEL NAPI2B ANTIBODIES, THERAPEUTIC METHODS AND USES THEREOF” (Tubulis GmbH, priority 2022, published 2024).
